Laboratory results as given in patent publication US20230203182A1 (NAVROGEN, published 2023).
Numbering of substitutions follows the chain as printed. In names and notes the source's numbering stands.

T1: human CD20 on Ramos cells (human, UniProt P11836 1-297)
T1 construct: whole, on cells; also called MS4A1
T1 sequence (looked up): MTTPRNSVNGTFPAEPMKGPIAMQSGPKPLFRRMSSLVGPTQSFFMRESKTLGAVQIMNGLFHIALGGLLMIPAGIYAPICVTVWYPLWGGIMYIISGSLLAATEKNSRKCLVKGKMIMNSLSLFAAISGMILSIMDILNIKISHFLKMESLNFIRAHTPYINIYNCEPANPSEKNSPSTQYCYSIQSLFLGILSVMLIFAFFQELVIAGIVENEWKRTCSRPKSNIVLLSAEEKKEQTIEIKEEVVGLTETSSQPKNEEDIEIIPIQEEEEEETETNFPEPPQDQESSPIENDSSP

B1: human complement protein C4B (other)
chain: KPRLLLFSPSVVHLGVPLSVGVQLQDVPRGQVVKGSVFLRNPSRNNVPCSPKVDFTLSSERDFALLSLQVPLKDAKSCGLHQLLRGPEVQLVAHSPWLKDSLSRTTNIQGINLLFSSRRGHLFLQTDQPIYNPGQRVRYRVFALDQKMRPSTDTITVMVENSHGLRVRKKEVYMPSSIFQDDFVIPDISEPGTWKISARFSDGLESNSSTQFEVKKYVLPNFEVKITPGKPYILTVPGHLDEMQLDIQARYIYGKPVQGVAYVRFGLLDEDGKKTFFRGLESQTKLVNGQSHISLSKAEFQDALEKLNMGITDLQGLRLYVAAAIIESPGGEMEEAELTSWYFVSSPFSLDLSKTKRHLVPGAPFLLQALVREMSGSPASGIPVKVSATVSSPGSVPEVQDIQQNTDGSGQVSIPIIIPQTISELQLSVSAGSPHPAIARLTVAAPPSGGPGFLSIERPDSRPPRVGDTLNLNLRAVGSGATFSHYYYMILSRGQIVFMNREPKRTLTSVSVFVDHHLAPSFYFVAFYYHGDHPVANSLRVDVQAGACEGKLELSVDGAKQYRNGESVKLHLETDSLALVALGALDTALYAAGSKSHKPLNMGKVFEAMNSYDLGCGPGGGDSALQVFQAAGLAFSDGDQWTLSRKRLSCPKEKTTRKKRNVNFQKAINEKLGQYASPTAKRCCQDGVTRLPMMRSCEQRAARVQQPDCREPFLSCCQFAESLRKKSRDKGQAGLQRALEILQEEDLIDEDDIPVRSFFPENWLWRVETVDRFQILTLWLPDSLTTWEIHGLSLSKTKGLCVATPVQLRVFREFHLHLRLPMSVRRFEQLELRPVLYNYLDKNLTVSVHVSPVEGLCLAGGGGLAQQVLVPAGSARPVAFSVVPTAATAVSLKVVARGSFEFPVGDAVSKVLQIEKEGAIHREELVYELNPLDHRGRTLEIPGNSDPNMIPDGDFNSYVRVTASDPLDTLGSEGALSPGGVASLLRLPRGCGEQTMIYLAPTLAASRYLDKTEQWSTLPPETKDHAVDLIQKGYMRIQQFRKADGSYAAWLSRGSSTWLTAFVLKVLSLAQEQVGGSPEKLQETSNWLLSQQQADGSFQDLSPVIHRSMQGGLVGNDETVALTAFVTIALHHGLAVFQDEGAEPLKQRVEASISKASSFLGEKASAGLLGAHAAAITAYALTLTKAPADLRGVAHNNLMAMAQETGDNLYWGSVTGSQSNAVSPTPAPRNPSDPMPQAPALWIETTAYALLHLLLHEGKAEMADQAAAWLTRQGSFQGGFRSTQDTVIALDALSAYWIASHTTEERGLNVTLSSTGRNGFKSHALQLNNRQIRGLEEELQFSLGSKINVKVGGNSKGTLKVLRTYNVLDMKNTTCQDLQIEVTVKGHVEYTMEANEDYEDYEYDELPAKDDPDAPLQPVTPLQLFEGRRNRRRREAPKVVEEQESRVHYTVCIWRNGKVGLSGMAIADVTLLSGFHALRADLEKLTSLSDRYVSHFETEGPHVLLYFDSVPTSRECVGFEAVQEVPVGLVQPASATLYDYYNPERRCSVFYGAPSKSRLLATLCSAEVCQCAEGKCPRQRRALERGLQDEDGYRMKFACYYPRVEYGFQVKVLREDSRAAFRLFETKITQVLHFTKDVKAAANQMRNFLVRASCRLRLEPGKEYLIMGLDGATYDLEGHPQYLLDSNSWIEEMPSERLCRSTRQRAACAQLNDFLQEYGTQGCQV
notes: also called enhancer protein
B2: RTX-MT clone 166 (antibody, human IgG1, kappa)
heavy: not shown
light: QIVLSQSPAILSASPGEKVTMTCRASSSVSYIHWFQQKPGSSPKPWIYATSNLASGVPVRFSGSGSGTSYSLTISRVEAEDAATYYCQQWTSNPPTFGGGTKLEIKRTVAAPSVFIFPPSDEQLKSGTASVVCLLNNFYPREAKVQWKVDNALQSGNSQESVTEQDSKDSTYSLSSTLTLSKADYEKHKVYACEVTHQGLSSPVTKSFNRGEC
notes: Biotinylated in the ELISAs; also called N109D+P131S+S136Y; triple mutant RTX-MT clone 166
B3: RTX-MT N109D+S136Y (antibody, human IgG1, kappa)
heavy: not shown
light: B2 light
B4: rituximab (parental antibody) (antibody, human IgG1, kappa)
heavy: not shown
light: B2 light
notes: IgG1-type anti-CD20 antibody; Biotinylated when used as probe in the CA125 and CD20-peptide ELISAs; also called RTX; RTX-WT
B5: RTX N109D (antibody, human IgG1, kappa)
heavy: not shown
light: B2 light
notes: also called RTX-MT N109D; RTX MT N109D
B6: RTX-MT clone 198 (antibody, human IgG1, kappa, V domains shown)
VH: QVQLQQPGAELVKPGASVKMSCKASGYTFTSYNMHWVKQTPGRGLEWIGAIYPGNGDTSYNQKFKGKATLTADKSSSTAYMQLSSLTSEDSAVYYCARSTYYGGDWCFNVWGAGTTVTVSA
VL: QIVLSQSPAILSASPGEKVTMTCRASSSVSYIHWFQQKPGSSPKPWIYATSNLASGVPVRFSGSGSGTSYSLTISRVEAEDAATYYCQQWTSNPPTFGGGTKLEIKR
notes: Biotinylated in the ELISAs
B7: RTX-MT clone 148 (antibody, human IgG1, kappa, V domains shown)
VH: B6 VH with Y102F, C107Y
VL: B6 VL
notes: Biotinylated in the ELISAs
B8: RTX-MT clone 164 (antibody, human IgG1, kappa, V domains shown)
VH: B6 VH with G103C, C107Y
VL: B6 VL
notes: Biotinylated in the ELISAs
B9: RTX-MT clone 199 (antibody, human IgG1, kappa, V domains shown)
VH: B6 VH with C107Y, F108L
VL: B6 VL
notes: Biotinylated in the ELISAs

biological target: T2, human CA125/MUC16 protein (human, UniProt Q8WXI7 1-14451, limits assumed); test: direct binding ELISA, CA125-coated wells, biotinylated C4B
T2 construct: Soluble CA125 used at 15 KU/mL in ELISAs; also called soluble CA125

Binder | binding result
B1 | no binding

biological target: T3, human CD16a (Fc-gamma activating receptor FCGR3A), biotinylated (human, UniProt P08637 17-208, limits assumed, biotinylated); test: CD16a ELISA, percentage of binding with CA125 versus no CA125 (FIG. 7A)
T3 construct: Soluble biotinylated probe in ELISA; construct not described; also called CD16a-biotin; Fc receptor
T3 sequence (P08637 17-208 limits assumed): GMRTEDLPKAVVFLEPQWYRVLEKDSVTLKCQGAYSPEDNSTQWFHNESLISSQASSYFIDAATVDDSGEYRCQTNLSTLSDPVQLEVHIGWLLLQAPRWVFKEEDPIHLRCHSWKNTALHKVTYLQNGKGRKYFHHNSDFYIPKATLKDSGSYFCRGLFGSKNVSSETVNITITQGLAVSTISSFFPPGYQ

Binder | binding result
B2 | binds
B3 | binds

biological target: T1, human CD20 on Ramos cells; test: cell-based fluorescent saturation binding on Ramos cells, Jurkat background subtracted, one-site nonlinear regression

Binder | Kd [nM]
B4 | 20.6
B5 | 30.5

biological target: T2, human CA125/MUC16 protein; test: cell-based or functional assay

Binder | suppression of CDC activity by CA125 (Daudi cells) [%]
B4 | 32
B6 | ≤ 15
B7 | ≤ 15
B8 | ≤ 15
B2 | ≤ 15
B9 | ≤ 15

biological target: T2, human CA125/MUC16 protein; test: ELISA, CA125-coated (15 KU/mL) and CD20 peptide-coated wells, biotinylated antibody
From the text: FIG. 4. […] Each of these antibodies were biotinylated and retested for CD20 and CA125 binding via ELISA. Briefly, antibodies were biotinylated using the EZ-Link™ Sulfo-NHS-Biotin (ThermoScientific) following the manufacturer’s instructions. Biotinylated antibodies where quantified by Nanodrop and validated for signal intensity using an anti-IgG ELISA capture assay to measure the signal intensity for each antibody. […] Wells were washed and then secondarily probed with streptavidin-HRP and quantified using TMB substrate as described above on a Varioskan plate reader at 450 nm. […] Any signal greater than a 20% decrease in CA125 was considered positive.

Binder | percent decrease in CA125 binding vs parental (ratio of CD20 to CA125 binding), selection criterion [%]
B6 | > 20
B7 | > 20
B8 | > 20
B9 | > 20
